This note sets out measurements from patent US20030082187A1.

Test [1] deals with murine VCAM-1 (vascular endothelial adhesion molecule-1) (murine) (UniProt P29533). Description: cell-based or functional assay.
Test [2] has the same target. Description: bEnd.3 cells, unstimulated against IL-1α-stimulated.

Chain of UniProt P29533 (P29533 25-739): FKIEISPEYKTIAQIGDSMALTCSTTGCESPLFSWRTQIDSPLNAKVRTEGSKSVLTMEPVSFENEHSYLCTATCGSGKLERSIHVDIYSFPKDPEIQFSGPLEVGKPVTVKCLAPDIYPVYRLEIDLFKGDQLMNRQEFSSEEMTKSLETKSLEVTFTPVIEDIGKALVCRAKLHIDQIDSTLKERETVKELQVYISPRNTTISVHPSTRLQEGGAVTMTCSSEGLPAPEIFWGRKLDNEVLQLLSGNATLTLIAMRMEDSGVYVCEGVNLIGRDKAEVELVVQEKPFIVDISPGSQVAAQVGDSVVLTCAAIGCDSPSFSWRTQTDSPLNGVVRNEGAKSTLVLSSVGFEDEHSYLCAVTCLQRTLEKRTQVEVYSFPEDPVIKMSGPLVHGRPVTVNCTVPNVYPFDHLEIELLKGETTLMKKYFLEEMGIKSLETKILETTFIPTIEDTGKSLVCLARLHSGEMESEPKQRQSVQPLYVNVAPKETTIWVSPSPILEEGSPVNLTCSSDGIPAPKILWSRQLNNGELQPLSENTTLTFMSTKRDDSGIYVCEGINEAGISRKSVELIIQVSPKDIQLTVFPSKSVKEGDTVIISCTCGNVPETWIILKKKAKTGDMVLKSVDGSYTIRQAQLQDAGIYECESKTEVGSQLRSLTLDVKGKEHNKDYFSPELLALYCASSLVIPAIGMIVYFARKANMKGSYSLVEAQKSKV

In test [1], “control IgG·tTF (R187) coaguligand (from UniProt P13726 33-251)” registered a Generation of Factor Xa (intact cells, control/unstimulated) (ng per 10^4 cells per 60 min) of 0.26 and a Generation of Factor Xa (permeabilized cells, control/unstimulated) (ng per 10^4 cells per 60 min) of 0.41.
In test [1], “anti-VCAM-1·tTF coaguligand (MK2.7 anti-VCAM-1 IgG covalently linked to truncated tissue factor) (from UniProt P13726 33-251)” registered a Generation of Factor Xa (intact cells, IL-1α) (ng per 10^4 cells per 60 min) of 3.17; a Generation of Factor Xa (intact cells, control/unstimulated) (ng per 10^4 cells per 60 min) of 1.64; a Generation of Factor Xa (permeabilized cells, IL-1α) (ng per 10^4 cells per 60 min) of 98.8; a Generation of Factor Xa (permeabilized cells, control/unstimulated) (ng per 10^4 cells per 60 min) of 49.2. The same substance displayed a percent lower amount bound to unstimulated versus stimulated cells in test [2] of 50%.
In test [1], “truncated tissue factor (tTF), unconjugated (from UniProt P13726 33-251)” registered a Generation of Factor Xa (intact cells, control/unstimulated) (ng per 10^4 cells per 60 min) of 0.26 and a Generation of Factor Xa (permeabilized cells, control/unstimulated) (ng per 10^4 cells per 60 min) of 0.39.
